Data: PMC6779754

Target: GST-Bsx (zebrafish) (UniProt Q6R3Q6)
Assay: EMSA
Conditions: EMSA: DIG Gel Shift Kit (Roche) per manufacturer, 2.0 pmol GST-Bsx with 32 fmol DIG-oligonucleotide or 8 fmol DIG-147bp probe; buffer, pH and temperature not …

GST-Bsx (zebrafish), sequence (Q6R3Q6 whole entry): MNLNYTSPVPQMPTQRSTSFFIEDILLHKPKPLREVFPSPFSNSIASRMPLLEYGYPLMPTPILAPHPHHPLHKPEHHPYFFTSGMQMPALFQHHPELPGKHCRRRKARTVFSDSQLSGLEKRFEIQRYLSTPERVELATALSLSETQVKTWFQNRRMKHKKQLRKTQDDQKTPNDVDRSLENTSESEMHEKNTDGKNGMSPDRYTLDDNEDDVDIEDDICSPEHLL

TCTCTGGATTATCCCCCTGTCTGACCCCAATCTGGCCACTCACTCCTGTAATCTGCCTAATCTGGACTCATGGGGTTCACATAAGAGCGCAGCGCCGGCTCTCCGGGCTTCATCTGCGGAGGTGTGCCGATCGTCCACTTCTCCATC (double strand) [wt147bp]
binding: binds

GATGGAGAAGTGGACGATCGGCACACCTCCGCAGATGAAGCCCGGAGAGCCGGCGCTGCGCTCTTATGTGAACCCCATGAGTCCATCGTAGGCAGATTACAGGAGTGAGTGGCCAGATTGGGGTCAGACAGGGGGATAATCCAGAGA (double strand) [147bp P4 mutant]
binding: binds

GATGGAGAAGTGGACGATCGGCACACCTCCGCAGATGAAGCCCGGAGAGCCGGCGCTGCGCTCTTATGTGAACCCCATGAGTCCAGATTAGGCATCGTACAGGAGTGAGTGGCCAGATTGGGGTCAGACAGGGGGATAATCCAGAGA (double strand) [147bp P3 mutant]
binding: binds more weakly
